Experimental data: article PMC8534003 (Cancers, 2021)
Where no end group is shown, it is not given here. The star is where a group is joined. Biotin = O=C1N[C@H]2[C@H](CS[C@H]2CCCCC(=O)*)N1

Target: T1, human recombinant FGF-2 (human, UniProt P09038 143-288)
T1 construct: basic fibroblast growth factor (FGF-2), human recombinant; also called basic fibroblast growth factor; source: bought: R&D Systems
Assay: grating-coupled interferometry; Creoptix WAVEdelta, 4PCP-STA chip; biotinylated CXCL9(74-103) captured on streptavidin; FGF-2 as analyte 4.53 nM-1.10 µM in duplicate; 25 °C; PBS with 30 mM NaCl, 15 mM L-arginine, 0.015% Tween 20, 0.05 mg/mL BSA, pH 7.4; 1:1 binding model with bulk correction
Conditions: both partners purified

T1 sequence (P09038 143-288): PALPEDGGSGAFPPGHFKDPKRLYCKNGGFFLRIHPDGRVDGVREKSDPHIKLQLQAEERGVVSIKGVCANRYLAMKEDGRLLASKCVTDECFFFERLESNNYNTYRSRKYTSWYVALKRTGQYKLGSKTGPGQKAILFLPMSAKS

Kd: 100 nM
B1: biotinylated CXCL9(74-103) (peptide)
peptide: Biotin-KKKQKNGKKHQKKKVLKVRKSQRSRQKKTT
notes: Site-specifically biotinylated at the NH2-terminus with biotin-p-nitrophenyl ester; source: synthetic peptide (Fmoc solid-phase synthesis)
